For this experiment, the target named is rpgr_mouse Rpgr (UniProt Q9R0X5).
Chain of rpgr_mouse Rpgr (Q9R0X5 whole entry): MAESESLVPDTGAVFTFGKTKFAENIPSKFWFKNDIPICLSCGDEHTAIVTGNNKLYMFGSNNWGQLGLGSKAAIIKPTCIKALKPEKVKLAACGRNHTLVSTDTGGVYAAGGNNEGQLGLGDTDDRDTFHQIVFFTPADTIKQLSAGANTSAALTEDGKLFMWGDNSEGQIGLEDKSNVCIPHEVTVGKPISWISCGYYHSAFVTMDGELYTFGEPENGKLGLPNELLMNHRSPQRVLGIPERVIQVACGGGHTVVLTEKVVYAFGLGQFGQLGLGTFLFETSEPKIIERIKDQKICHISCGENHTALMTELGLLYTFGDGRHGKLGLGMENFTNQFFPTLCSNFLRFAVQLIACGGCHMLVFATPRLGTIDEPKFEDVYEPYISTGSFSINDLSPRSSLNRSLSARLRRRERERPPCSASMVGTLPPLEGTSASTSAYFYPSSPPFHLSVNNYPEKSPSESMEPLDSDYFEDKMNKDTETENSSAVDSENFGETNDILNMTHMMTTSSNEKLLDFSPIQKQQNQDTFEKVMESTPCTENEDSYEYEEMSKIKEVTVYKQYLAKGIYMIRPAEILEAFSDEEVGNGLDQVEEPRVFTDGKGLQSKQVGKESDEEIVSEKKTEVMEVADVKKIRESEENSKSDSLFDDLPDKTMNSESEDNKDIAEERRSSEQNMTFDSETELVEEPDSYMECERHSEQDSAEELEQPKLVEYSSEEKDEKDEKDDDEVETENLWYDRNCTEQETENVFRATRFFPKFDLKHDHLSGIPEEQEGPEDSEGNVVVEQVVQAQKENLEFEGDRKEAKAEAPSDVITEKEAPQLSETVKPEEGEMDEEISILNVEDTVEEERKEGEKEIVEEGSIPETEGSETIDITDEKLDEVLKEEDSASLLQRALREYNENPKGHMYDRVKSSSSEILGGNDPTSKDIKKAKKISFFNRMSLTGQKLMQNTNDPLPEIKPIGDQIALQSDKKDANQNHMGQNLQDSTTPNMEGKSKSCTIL
Chain of Protein fantom (Homo sapiens), Q68CZ1 A229T (Q68CZ1 whole entry A229T): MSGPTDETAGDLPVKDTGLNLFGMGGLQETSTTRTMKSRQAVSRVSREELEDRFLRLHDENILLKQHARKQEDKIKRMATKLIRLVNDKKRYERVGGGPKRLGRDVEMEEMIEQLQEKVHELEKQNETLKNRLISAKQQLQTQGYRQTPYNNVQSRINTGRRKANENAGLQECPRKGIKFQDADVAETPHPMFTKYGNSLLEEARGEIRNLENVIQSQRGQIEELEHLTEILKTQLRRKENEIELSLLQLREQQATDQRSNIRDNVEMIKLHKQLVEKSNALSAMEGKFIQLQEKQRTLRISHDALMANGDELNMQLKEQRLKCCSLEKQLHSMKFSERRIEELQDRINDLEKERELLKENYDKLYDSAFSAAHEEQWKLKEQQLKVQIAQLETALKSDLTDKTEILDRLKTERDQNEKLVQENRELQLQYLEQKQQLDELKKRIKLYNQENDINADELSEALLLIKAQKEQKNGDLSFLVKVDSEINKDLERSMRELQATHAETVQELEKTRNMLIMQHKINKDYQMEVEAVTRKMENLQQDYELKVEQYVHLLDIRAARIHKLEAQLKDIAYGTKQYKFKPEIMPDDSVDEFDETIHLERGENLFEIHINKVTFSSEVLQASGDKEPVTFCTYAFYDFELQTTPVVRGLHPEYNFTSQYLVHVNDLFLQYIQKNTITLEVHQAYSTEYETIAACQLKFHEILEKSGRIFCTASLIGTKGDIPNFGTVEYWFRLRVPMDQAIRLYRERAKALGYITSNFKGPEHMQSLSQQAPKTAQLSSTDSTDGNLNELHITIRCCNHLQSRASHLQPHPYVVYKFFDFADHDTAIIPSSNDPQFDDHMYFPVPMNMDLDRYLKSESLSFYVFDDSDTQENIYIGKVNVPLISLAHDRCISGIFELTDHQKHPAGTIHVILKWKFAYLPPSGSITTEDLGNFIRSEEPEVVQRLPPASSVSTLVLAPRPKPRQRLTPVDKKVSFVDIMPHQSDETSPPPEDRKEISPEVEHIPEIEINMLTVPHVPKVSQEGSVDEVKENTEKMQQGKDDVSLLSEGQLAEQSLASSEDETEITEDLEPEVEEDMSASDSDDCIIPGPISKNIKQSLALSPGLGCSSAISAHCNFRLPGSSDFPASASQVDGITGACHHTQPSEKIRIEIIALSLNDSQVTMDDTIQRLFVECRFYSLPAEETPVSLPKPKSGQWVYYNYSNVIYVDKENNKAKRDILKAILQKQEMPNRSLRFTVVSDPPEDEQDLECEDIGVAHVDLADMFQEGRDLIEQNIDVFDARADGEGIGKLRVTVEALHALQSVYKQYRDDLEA
Take “Protein fantom (Homo sapiens), Q68CZ1 T677I”: the “effect of a mutation on the interaction” value is “with no effect”. Then “Protein fantom (Homo sapiens), Q68CZ1 A229T”, with “decreasing interaction strength”; and “Protein fantom (Homo sapiens), Q68CZ1 A695P”, with “decreasing interaction strength”; and “Protein fantom (Homo sapiens), Q68CZ1 T615P”, with “decreasing interaction strength”.

Values taken from IntAct's records for PubMed 19430481.
